[ ]: non-standard residue; d: D form. ξ: configuration not given here. ξGly(dodecyl) = CCCCCCCCCCCCC(N)C(=O)O
The substances below were run against T1, CTDSP1 (Homo sapiens, UniProt Q9GZU7) (assay: In vitro CTDSP1 phosphatase activity on phosphorylated REST peptide). Details: 1 μM peptide-GST fusion; relative to GST control; substrate TEDpSPPpSPPLPKEN.
T1 construct: GSGS linker + His6 (C)
T1 sequence (Q9GZU7 with tags, fused parts or gaps): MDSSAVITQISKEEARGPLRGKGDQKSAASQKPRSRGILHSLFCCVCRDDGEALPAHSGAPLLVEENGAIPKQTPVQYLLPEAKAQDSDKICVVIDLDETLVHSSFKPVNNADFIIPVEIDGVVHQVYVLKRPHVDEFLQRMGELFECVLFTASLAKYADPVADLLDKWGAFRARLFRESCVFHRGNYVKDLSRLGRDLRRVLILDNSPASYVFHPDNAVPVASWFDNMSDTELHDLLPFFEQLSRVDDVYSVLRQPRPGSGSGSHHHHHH
Format: biochemical
Experimental: FIG. 25. In vitro CTDSP1 phosphatase activity (relative to GST control) on the REST peptide (TEDpSPPp[…] (SEQ ID NO: 329)) as a substrate after exposure to 1 μM of RPP (SEQ ID NO: 1) or one of its variants (Table 3).
FIG. 26. […] N=5, error bars are standard deviation.
Results: FIG. 25—The top 51 most abundant RPP variants identified in the RNA display/protein evolution screen are listed in-Table 3 in the order of most (V1) to least (V51) abundant peptides. The primers used to make these peptides are listed in-Table 5. A phosphatase activity screen (Table 6, FIG. 25) was used to assess the ability of the top 51 RPPV to inhibit CTDSP1 phosphatase activity at amino acids 861 and 864 on the endogenous phosphorylated REST peptide (TEDpSPPp[…] (SEQ ID NO: 329)).
The phosphorylated REST peptide (TEDpSPPp[…] (SEQ ID NO: 329)) was synthesized by GeneScript. Phosphatase reactions were performed with 10 mM Tris pH 8, 10 mM MgCl2, 100 nM CTDSP1, 0.5 μM phosphate sensor (Thermo Fischer), 50 μM of REST peptide and various concentrations of peptide-GST fusions at room temperature for 10 min. All assays were performed in 96-well pates (Corning P/N 3686) rinsed with water 10 times. Fluorescence was measured by BioTek Synergy HTX using kinetic read with excitation at 420/27 nm and emission at 485/20 nm.

Substance	Relative Phosphatase activity
MCTKDLAPQAPPLLKENC [v51]	0.71
MCTEDLQPPEPQLPEVNC [v23]	0.60
MCTEVLVPRTTSGKGRLWFWLWSQKGHPSASACGS [v42]	0.48
MCPEDLERPPLTKEHC [v37]	0.16
MCIADPEPPEAQLPEGNC [v14]	0.54
MCTGDLQPPEAQVIEVNC [v22]	0.59
MCTEDLKPPEASLPEENC [v32]	0.89
MCTKHLEPPGPPLPQENC [v17]	0.24
MCPEDLQPPEPALPEKKKKKIVVLALVVKSAVSVGVV [v41]	0.46
MCTEDQEQQEEQLPEENC [v9]	0.65
MCSVDLQPPARLRPMVNC [v20]	0.13
MCTEAPAPPEPALPKKKKNC [v4]	0.67
MCAGDLKPPETTMSKKNC [v39]	0.59
MCAGDLEQPEPPVAKKKKKNC [v33]	0.00
MCTEDLEPPKATMTKKDC [v12]	0.41
MCSEAQEPPESRLPQVNC [v16]	0.79
MCTEDLEPPERPLPREIC [v38]	0.28
MCTEAPAPPEPALPKKKKKNC [v27]	0.19
MCTGDLKLPEPPMSKKKKKNC [v29]	0.17
MCNEALEPPPLRKEHC [v36]	0.68
MCNGDLERPEPPVAKEYC [v34]	0.74
MCTEDLKPPEPPLPKENC [v35]	0.07

Substance	Relative Phosphatase activity
MCTEDMEPRKTTMTKKYC [v25]	0.63
MCTEAPAPPEPALPKKKKKKNC [v26]	0.46
MCSVDLQPPARLRPMVNC [v46]	0.37
MCTEDQERPPVTKEDC [v13]	0.20
MCPGDLKQPEPPMPKEYC [v11]	0.13
MCTADLKPPKTTMTKQNC [v10]	0.84
MCTAAPEPPEPQLPQANC [v44]	0.53
MCTEALEPPEPPLTKENC [v47]	0.20
MCTGVQEPPEATLPKKNC [v15]	0.70
MCTEDLQPPKTTMAEKYC [v30]	0.62
MCTEDLQLPKTTMTKEYC [v19]	0.76
MCTADLQPPEASLPQQNC [v49]	0.58
MCSEDPEPPKTTMTKKNC [v31]	0.43
MCTEDLQSPKTTMTKENC [v28]	0.33
MCAEDLQPPPLLEAHCGSDSGRKKRRQC [v43]	0.97
MCTGDLQPPESRQPQVNC [v21]	0.26
MCTEDLQQPERSQPMESC [v40]	0.29
MCTAAPEPPEPPVSKEYC [v18]	0.43
MCTEAPAPPEPALPKKKKKNC [v2]	0.66
MCTADLEPPEPRMEKKKVDC [v5]	0.49
MCTGDLQPPKTTVSKKDC [v6]	0.77
MCTEDLQSPKTTMTKENC [v7]	0.24

Same assay, conditions: 1 μM; relative to control (GST)

Substance	inhibition of phosphatase activity
MCAGDLEQPEPPVAKKKKKNC [v33]	100%
MCTEDLKPPEPPLPKENC [v35]	approximately 90%
MCTEDLEPPEPPLPKENC [v1]	approximately 60%

Each substance was assayed on L5 DRGs (assay: qRT-PCR mRNA expression in ex vivo cultured L5 DRGs). Details: DRG; 1 μM; 48 h.
Format: cell-based, Sprague Dawley rat
Experimental: FIG. 15. […] Error bars =standard error of the mean.
L5 DRGs were dissected from adult male rats and plated in 12-well plates pre-coated with poly-D-Lysine (PDL) and laminin in a minimal volume of medium (250 ul Neurobasal™-A medium (GIBCO) supplemented with B27 (GIBCO), 50 ng/ml NGF (Sigma-Aldrich) and penicillin streptomycin) to allow attachment to the culture plate. One day after plating, DRGs were incubated with RPP (SEQ. ID NO: 12: 1 μM, 3 μM or 10 μM in culture medium, FIGS. 14 and 16; SEQ ID NOS: 13 and 14: 3 μM, FIG. 15) for 48 h. For RNA expression analysis, DRGs were lysed in 300 μl of Qiazol in a 1.5 ml tube containing Bullet Blender Pink Beads using a Bullet Blender Tissue Homogenizer (NextAdvance). Total RNA was extracted using RNeasy Midi Kit (Qiagen) according to manufacturer's instructions. Purified RNA was quantified with NanoDrop 2000 (ThermoFIsher), and reverse transcription was run using High Capacity cDNA Reverse Transcription Kit (Applied Biosystems) and 2 ng/ul RNA per reaction. For qRT-PCR, 5 ul of cDNA (corresponding to 10 ng of RNA) were mixed with to 10 ul SsoAdvanced™ Universal SYBR® Green Supermix (BioRad) and 1 ul of each primer (final primer concentration 500 nM each). Reactions were run in triplicates in a QuantStudio™ 7 Flex Real-Time PCR system (Applied Biosystems). Amplification data were analyzed using the comparative cycle threshold (ΔΔCt) method and β-actin as calibrator. Primers were as follows: β-actin: F-[…] (SEQ ID NO: 340), R-[…] (SEQ ID NO: 333); KV4.3: F-[…] (SEQ ID NO: 341), R-[…] (SEQ ID NO: 342); KV7.2 F-[…] AG (SEQ ID NO: 343), R-[…] (SEQ ID NO: 344); OPRM1: F-[…] (SEQ ID NO: 345), R-[…] (SEQ ID NO: 346).

Substance	Increase, Nav1.8 mRNA [x]
SEQ ID NO: 14: RPP fused to an intracellular transport peptide and cyclized; sequence in Table 19 (cyclo([dR][dR][ξGly(dodecyl)][dR][dR][dR][dK][dP][dL][dP][dP][dE][dP][dP][dE][dL][dD][dE]); SMILES CCCCCCCCCCCCC1NC(=O)[C@@H](CCCNC(=N)N)NC(=O)[C@@H](CCCNC(=N)N)NC(=O)[C@@H](CCC(=O)O)NC(=O)[C@@H](CC(=O)O)NC(=O)[C@@H](CC(C)C)NC(=O)[C@@H](CCC(=O)O)NC(=O)[C@H]2CCCN2C(=O)[C@H]2CCCN2C(=O)[C@@H](CCC(=O)O)NC(=O)[C@H]2CCCN2C(=O)[C@H]2CCCN2C(=O)[C@@H](CC(C)C)NC(=O)[C@H]2CCCN2C(=O)[C@@H](CCCCN)NC(=O)[C@@H](CCCNC(=N)N)NC(=O)[C@@H](CCCNC(=N)N)NC(=O)[C@@H](CCCNC(=N)N)NC1=O)	13

From patent US12180255B2, “Compositions and methods for derepressing RE1 silencing transcription factor target genes” (Alcamena Stem Cell Therapeutics, LLC, priority 2019, dated 2024)
